These results are taken from publication PMC6954215, “Structures of β-glycosidase LXYL-P1-2 reveals the product binding state of GH3 family and a specific pocket for Taxol recognition” (Communications Biology, 2020).

Assay [1] addresses β-xylosidase/glucosidase LXYL-P1-2 (Lentinula edodes). Briefly: SEC; molecular weight by gel filtration; conditions not given.
Assay [2] has the same target. Briefly: crystal structure; native crystal, endoglycosidase-treated protein at 10 mg/ml, hanging drop at 16 °C, 13% PEG3350, 0.1 M Tris-HCl pH 8.5, 0.2% MgCl2; 2.4 Å; tetramer in the asymmetric unit.
A further assay concerns the target T1, LXYL-P1-2 (Lentinula edodes, UniProt G8GLP2, E529Q).
T1 construct: expressed in Pichia pastoris GS115 from pPIC3.5K-lxyl-p1-2; KEX2 cleavage after Arg35, mature N-terminus Asp36; endoglycosidase-treated for crystals; tetramer
Nature of the assay: X-ray crystallography, […] Å. The class given is binding. To be noted: co-crystallised with XDT, cleaved in crystal; product complex with xylose; 0.1 M Hepes pH 7.5, 16 °C.

Consider “β-xylosidase/glucosidase LXYL-P1-2 (enzyme)”, for which the stoichiometry N in assay [1] and in assay [2] was 4 each time.

In the case of `CC(=O)O[C@@]12CO[C@@H]1C[C@H](O)[C@@]1(C)C(=O)[C@H](O)C3=C(C)[C@@H](OC(=O)[C@H](O)[C@@H](NC(=O)c4ccccc4)c4ccccc4)C[C@@](O)([C@@H](OC(=O)c4ccccc4)[C@H]21)C3(C)C` [10-deacetyltaxol], on LXYL-P1-2, the “X-ray crystallography, 2.27 Å” value is “The electron density clearly shows the existence of xylose and DT”. On to `OC1OC[C@@H](O)[C@H](O)[C@H]1O` (stereo partly shown) [xylose], for which the “X-ray crystallography, 2.27 Å” value at LXYL-P1-2 was “The electron density clearly shows the existence of xylose and DT”.
